Test results from patent US20250213707A1, “COMPOUND FOR INCREASING EFFICACY OF ONCOLYTIC VIRUSES” (ABLEVIA BIOTECH GMBH, priority 2022, published 2025).

B1: … (peptide)
peptide: EWGTVCNNGWSME
modifications: not checked
B2: … (peptide)
peptide: CRGNESALWD
modifications: not checked
B3: … (peptide)
peptide: NESALWDCKHDGW
modifications: not checked
B4: … (peptide)
peptide: EEWGTVCNNGWSM
modifications: not checked
B5: … (peptide)
peptide: QEEWGTVCNNGWS
modifications: not checked
B6: ESALWDC (peptide)
peptide: ESALWDC
modifications: not checked
B7: … (peptide)
peptide: RGNESALWDC
modifications: not checked
B8: … (peptide)
peptide: SCRGNESALW
modifications: not checked
B9: … (peptide)
peptide: VSCRGNESALWDC
modifications: not checked
B10: … (peptide)
peptide: ALWDCKHDGW
modifications: not checked
B11: … (peptide)
peptide: EWGTVCNNGW
modifications: not checked
B12: … (peptide)
peptide: VQEEWGTVCNNGW
modifications: not checked
B13: … (peptide)
peptide: WGTVCNNGWS
modifications: not checked
B14: … (peptide)
peptide: ESALWDCKHDGWG
modifications: not checked
B15: … (peptide)
peptide: DHVSCRGNESALW
modifications: not checked
B16: … (peptide)
peptide: WGTVCNNGWSMEA
modifications: not checked
B17: … (peptide)
peptide: CSGRVEVKVQEEW
modifications: not checked

Target: mAb Mac2-158
Experiment: circular peptide array

Row | Binder | rank of binding signal [rank]
1 | B1 | 4
2 | B2 | 11
3 | B3 | 13
4 | B4 | 14
5 | B5 | 9
6 | B6 | 1
7 | B7 | 2
8 | B8 | 3
9 | B9 | 5
10 | B10 | 6
11 | B11 | 19
12 | B12 | 18
13 | B13 | 20
14 | B14 | 17
15 | B15 | 8
16 | B16 | 12
17 | B17 | 7
